# Measured values published in the RNAGym collection of RNA variant scans (doi:10.1021/acssynbio.7b00057).
# B1: Pistol ribozyme (parent)
# chain: GGGUCGUUGUUCCAUAAUCGCGUGGAUAUGGCACGCAAGUUUCUACCGGGCACCGUAAAUGUCCGACUGGAGCCGUUCGGGCGGCUAUAAACAGACCUCAGGCCCGAAGCGUGGCGGCACCUGCCGCCGGUGGUAAAAAAGAUCGGAAGAGCACACGUCU
# Variants of: B1
# Assay: aptazyme ON/OFF ratio, guanine; higher = stronger switching; co-transcriptional cleavage with and without guanine
row,Variant,aptazyme ON/OFF ratio
1,U7A U8C G9C U11G C12A C13G,1.31
2,U7A U8C G9C U11G C12A C13A,1.11
3,U7A U8C G9C U11G C12A C13U,1.11
4,U7A U8C G9C U11A C12U C13G,1.04
5,U7A U8C G9C U11A C12U C13A,1.09
6,U7A U8C G9C U11A C12U C13U,1.07
7,U7A U8C G9C U11G C12U,1.28
8,U7A U8C G9C U11G C12G,1.12
9,U7A U8C G9C U11G C12A,1.08
10,U7A U8C G9U U10G U11C C12U,1.12
11,U7A U8C G9U U10G U11C C12G,1.32
12,U7A U8C G9U U10G U11C C12A,1.25
13,U7A U8C G9U U10A C12G,1.23
14,U7A U8C G9U U10A C12U,1.18
15,U7A U8C G9U U10A C12A,1.25
16,U7A U8C G9C U10G U11C C13U,1.1
17,U7A U8C G9C U10G U11C C13G,1.33
18,U7A U8C G9C U10G U11C C13A,1.21
19,U7A U8C G9C U10G C13G,1.09
20,U7A U8C G9C U10G C13U,1.14
21,U7A U8C G9C U10G C13A,1.1
22,U7A U8C G9C U10G U11G C12A,1.24
23,U7A U8C G9C U10G U11G C12U,1.05
24,U7A U8C G9C U10G U11G C12G,1.13

row,Variant,aptazyme ON/OFF ratio
1,U7A U8C G9U U10C U11C C12G,1.07
2,U7A U8C G9U U10C U11C C12U,1.06
3,U7A U8C G9U U10C U11C C12A,1.08
4,U7A U8C G9U U11A,1.19
5,U7A U8C G9U U10A U11A C12G C13U,1.34
6,U7A U8C G9U U10A U11A C12G C13A,1.15
7,U7A U8C G9U U10A U11A C12G C13G,1.2
8,U7A U8C G9C U11C C12A C13A,1.06
9,U7A U8C G9C U11C C12A C13U,1.04
10,U7A U8C G9C U11C C12A C13G,1.04
11,U7A U8C G9C U10G U11C C12G C13U,1.12
12,U7A U8C G9C U10G U11C C12G C13A,1.18
13,U7A U8C G9C U10G U11C C12G C13G,1.18
14,U7A U8C G9U U10G C12G,1.13
15,U7A U8C G9U U10G C12A,1.53
16,U7A U8C G9U U10G C12U,1.17
17,U7A U8C G9U,1.94
18,U7A U8C G9U U10A U11C C12A C13A,1.17
19,U7A U8C G9U U10A U11C C12A C13G,1.14
20,U7A U8C G9U U10A U11C C12A C13U,1.23
21,U7A U8C G9U U10C U11A C12A,1.14
22,U7A U8C G9U U10C U11A C12G,1.13
23,U7A U8C G9U U10C U11A C12U,1.13
24,U7A U8C G9C U10G U11A C12A,1.26

row,Variant,aptazyme ON/OFF ratio
1,U7A U8C G9C U10G U11A C12U,1.04
2,U7A U8C G9C U10G U11A C12G,1.11
3,U7A U8C G9U U10G U11C C13G,1.08
4,U7A U8C G9U U10G U11C C13A,1.17
5,U7A U8C G9U U10G U11C C13U,1.03
6,U7A U8C G9U C13U,1.23
7,U7A U8C G9U C13G,1.03
8,U7A U8C G9U C13A,1.27
9,U7A U8C G9U U10C U11C C12U C13G,1.08
10,U7A U8C G9U U10C U11C C12U C13U,1.1
11,U7A U8C G9U U10C U11C C12U C13A,1.05
12,U7A U8C G9C U11C C12A,1.04
13,U7A U8C G9C U11C C12G,1.18
14,U7A U8C G9C U11C C12U,1.03
15,U7A U8C G9U U10G U11G C13G,1.14
16,U7A U8C G9U U10G U11G C13U,1.17
17,U7A U8C G9U U10G U11G C13A,1.18
18,U7A U8C G9U U10C C12U C13A,1.19
19,U7A U8C G9U U10C C12U C13G,1.09
20,U7A U8C G9U U10C C12U C13U,1.16
21,U7A U8C G9C U11A C13U,1.05
22,U7A U8C G9C U11A C13A,1.05
23,U7A U8C G9C U11A C13G,1.07
24,U7A U8C G9U U10C,1.55

row,Variant,aptazyme ON/OFF ratio
1,U7A U8C G9U U10A,1.4
2,U7A U8C G9U U10G,3.16
3,U7A U8C G9U U10G C12U C13A,1.61
4,U7A U8C G9U U10G C12U C13G,1.72
5,U7A U8C G9U U10G C12U C13U,1.14
6,U7A U8C G9C U11G C12G C13A,1.12
7,U7A U8C G9C U11G C12G C13U,1.11
8,U7A U8C G9C U11G C12G C13G,1.12
9,U7A U8C G9U U10G C13G,1.16
10,U7A U8C G9U U10G C13A,1.34
11,U7A U8C G9U U10G C13U,1.24
12,U7A U8C G9C U10G C12G,1.12
13,U7A U8C G9C U10G C12A,1.07
14,U7A U8C G9C U10G C12U,1.02
15,U7A U8C G9U C12G,1.45
16,U7A U8C G9U C12A,1.26
17,U7A U8C G9U C12U,1.33
18,U7A U8C G9C U10G C12A C13G,1.12
19,U7A U8C G9C U10G C12A C13A,1.06
20,U7A U8C G9C U10G C12A C13U,1.07
21,U7A U8C G9U U10G U11A C12A,1.14
22,U7A U8C G9U U10G U11A C12G,1.21
23,U7A U8C G9U U10G U11A C12U,1
24,U7A U8C G9C U11A C12G C13U,1.13

row,Variant,aptazyme ON/OFF ratio
1,U7A U8C G9C U11A C12G C13G,1.16
2,U7A U8C G9C U11A C12G C13A,1.09
3,U7A U8C G9U C12A C13U,1.27
4,U7A U8C G9U C12A C13A,1.15
5,U7A U8C G9U C12A C13G,1.19
6,U7A U8C G9C U11C C12G C13U,1.09
7,U7A U8C G9C U11C C12G C13G,1.13
8,U7A U8C G9C U11C C12G C13A,1.07
9,U7A U8C G9U U10A U11A C12U C13U,1.16
10,U7A U8C G9U U10A U11A C12U C13A,1.21
11,U7A U8C G9U U10A U11A C12U C13G,1.12
12,U7A U8C G9U U10A U11G C12G,1.12
13,U7A U8C G9U U10A U11G C12U,1.35
14,U7A U8C G9U U10A U11G C12A,1.07
15,U7A U8C G9U C12G C13G,1.16
16,U7A U8C G9U C12G C13U,1.37
17,U7A U8C G9U C12G C13A,1.23
18,U7A U8C G9U U10G U11G C12A,1.18
19,U7A U8C G9U U10G U11G C12G,1.22
20,U7A U8C G9U U10G U11G C12U,1.25
21,U7A U8C G9U U11A C12A,1.32
22,U7A U8C G9U U10A C12A C13U,1.18
23,U7A U8C G9U U10A C12A C13G,1.15
24,U7A U8C G9U U10A C12A C13A,1.12

row,Variant,aptazyme ON/OFF ratio
1,U7A U8C G9U U10C U11C,0.995
2,U7A U8C G9U U10C U11A,1.23
3,U7A U8C G9U U10C U11G,1.22
4,U7A U8C G9C U10G,1.01
5,U7A U8C G9U U10G U11G C12G C13A,1.15
6,U7A U8C G9U U10G U11G C12G C13G,1.22
7,U7A U8C G9U U10G U11G C12G C13U,1.29
8,U7A U8C G9U U10A U11G C12A C13A,1.08
9,U7A U8C G9U U10A U11G C12A C13G,1.2
10,U7A U8C G9U U10A U11G C12A C13U,1.1
11,U7A U8C G9U U10A U11C C12U C13A,1.1
12,U7A U8C G9U U10A U11C C12U C13G,1.12
13,U7A U8C G9U U10A U11C C12U C13U,1.18
14,U7A U8C G9U U10G U11A C12A C13U,1.41
15,U7A U8C G9U U10G U11A C12A C13G,1.13
16,U7A U8C G9U U10G U11A C12A C13A,1.04
17,U7A U8C G9C U10G U11A C13A,1.05
18,U7A U8C G9C U10G U11A C13G,1.1
19,U7A U8C G9C U10G U11A C13U,1.02
20,U7A U8C G9U U10C C13G,1.06
21,U7A U8C G9U U10C C13U,1.19
22,U7A U8C G9U U10C C13A,1.09
23,U7A U8C G9C U10G U11G C12U C13U,1.1
24,U7A U8C G9C U10G U11G C12U C13G,1.1

row,Variant,aptazyme ON/OFF ratio
1,U7A U8C G9C U10G U11G C12U C13A,1.07
2,U7A U8C G9U U10G C12A C13A,1.45
3,U7A U8C G9U U10G C12A C13U,1.07
4,U7A U8C G9U U10G C12A C13G,1.18
5,U7A U8C G9C U10G U11G C13G,1.08
6,U7A U8C G9C U10G U11G C13A,1.12
7,U7A U8C G9C U10G U11G C13U,1.09
8,U7A U8C G9U U10C U11G C13U,1.25
9,U7A U8C G9U U10C U11G C13G,1.31
10,U7A U8C G9U U10C U11G C13A,1.17
11,U7A U8C G9U U10A U11G,1.31
12,U7A U8C G9U U10A U11A,1.37
13,U7A U8C G9U U10A U11C,1.01
14,U7A U8C G9U C12U C13U,1.39
15,U7A U8C G9U C12U C13A,1.22
16,U7A U8C G9U C12U C13G,1.12
17,U7A U8C G9C U11A C12U,1.05
18,U7A U8C G9C U11A C12G,1.09
19,U7A U8C G9C U11A C12A,1.08
20,U7A U8C G9U U11A C12A C13A,1.42
21,U7A U8C G9U U11A C12A C13U,1.33
22,U7A U8C G9U U11A C12A C13G,1.24
23,U7A U8C G9U U10C C12A,1.27
